From patent publication US20250289901A1 (CHONGQING GENRIX BIOPHARMACEUTICAL, published 2025)

What was measured:
[1] = target: T1, CD3E on the surface of Jurkat human acute T lymphocyte leukemia cell (human, UniProt P07766 23-207); experiment: flow cytometry on Jurkat cells, goat anti-human IgG-FITC
T1 construct: whole, on cells; also called CD3 positive Jurkat cells
Protocol: (§1) Jurkat human acute T-lymphocyte leukemia cells (Cell Resource Center, Institute of Basic Medicine, Chinese Academy of Medical Sciences) in the logarithmic growth phase were harvested, centrifuged, and resuspended in PBS buffer containing 1% BSA to 2×10⁶ cells/mL, and plated at 100 μL/well in 96-well V bottom plates. […] Next, the cells were washed three times with 200 μL of PBS solution, and suspended in 100 μL of PBS solution. Thereafter, the FITC channel was detected by flow cytometer (ACEA, Novocyte).

[2] = target: T2, extracellular region of human BCMA with C-terminal His tag (human, UniProt Q02223 1-54); experiment: bridging ELISA: CD3E-FcK/CD3D-FcH coated, antibody, then BCMA-His, detected with HRP anti-His
T2 construct: No linker between the extracellular region and the tag is stated; also called hBCMA-his; hBCMA-His
T2 sequence: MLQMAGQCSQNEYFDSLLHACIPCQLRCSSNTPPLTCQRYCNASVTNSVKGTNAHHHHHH

[3] = target: T3, BCMA on the surface of NCI-H929 human plasma cell leukemia cell (human, UniProt Q02223 1-184); experiment: flow cytometry on NCI-H929 cells, goat anti-human IgG-FITC
T3 construct: whole, on cells; also called BCMA positive NCI-H929 cells; BCMA-positive tumor cells
T3 sequence (looked up): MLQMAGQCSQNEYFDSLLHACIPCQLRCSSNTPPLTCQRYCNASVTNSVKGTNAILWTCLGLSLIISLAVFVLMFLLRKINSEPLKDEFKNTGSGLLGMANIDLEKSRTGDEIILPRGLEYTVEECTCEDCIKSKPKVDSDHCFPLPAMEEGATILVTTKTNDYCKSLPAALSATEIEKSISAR
Protocol: as §1, with “NCI-H929” for “Jurkat”, “plasma cell” for “acute T-lymphocyte”, “in” for “in the”

T1 sequence (P07766 23-207): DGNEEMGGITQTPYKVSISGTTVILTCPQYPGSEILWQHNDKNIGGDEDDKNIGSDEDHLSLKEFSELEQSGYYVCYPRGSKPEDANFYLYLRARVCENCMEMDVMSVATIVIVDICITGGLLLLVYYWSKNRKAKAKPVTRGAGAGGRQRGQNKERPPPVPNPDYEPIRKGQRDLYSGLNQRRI

B1: anti-CD3E monoclonal antibody H10B7+L9B9 (antibody, human IgG1, kappa, V domains shown)
VH: QVQLVESGGGVVQPGRSLRLSCAASGFKFSGYGMHWVRQAPGKGLEWVAVIWFDGSRKYYVDSVKGRFTISRDNSKNTLYLQMNSLRAEDTAVYYCARQMGYWHFGLWGRGTLVTVSS
VL: DIQMTQSPSSLSASVGDRVTITCRASQSISNYLTWYQQKPGKAPKLLIYEASSRPSGVPSRFSGSGSGTDFTLTISSLQPEDFATYYCQQWSRLPVTFGQGTKVEIKR
For B1, which “EC50 (read off the curve)” value [1] is on record?
The value was roughly 1 nM.

Does B1 bind [2]?
Result: no binding

B2: bispecific antibody CD3ExBCMA (bispecific antibody, human IgG1, kappa)
heavy 1: QVQLVESGGGVVQPGRSLRLSCAASGFKFSGYGMHWVRQAPGKGLEWVAVIWFDGSRKYYVDSVKGRFTISRDNSKNTLYLQMNSLRAEDTAVYYCARQMGYWHFGLWGRGTLVTVSSASTKGPSVFPLAPSSKSTSGGTAALGCLVKDYFPEPVTVSWNSGALTSGVHTFPAVLQSSGLYSLSSVVTVPSSSLGTQTYICNVNHKPSNTKVDKRVEPKSCDKTHTCPPCPAPEFEGGPSVFLFPPKPKDTLMISRTPEVTCVVVDVSHEDPEVKFNWYVDGVEVHNAKTKPREEQYNSTYRVVSVLTVLHQDWLNGKEYKCKVSNKALPASIEKTISKAKGQPREPQVYTLPPCREEMTKNQVSLWCLVKGFYPSDIAVEWESNGQPENNYKTTPPVLDSDGSFFLYSKLTVDKSRWQQGNVFSCSVMHEALHNHYTQKSLSLSPGK
heavy 2: QVQLVQSGAEVKKPGSSVKVSCKASGYTFTNYWMHWVRQAPGQGLEWMGATYRGHSDTYYNQKFKGRVTITADKSTSTAYMELSSLRSEDTAVYYCTRGAVYAGYDVLDYWGQGTTVTVSSASTKGPSVFPLAPSSKSTSGGTAALGCLVKDYFPEPVTVSWNSGALTSGVHTFPAVLQSSGLYSLSSVVTVPSSSLGTQTYICNVNHKPSNTKVDKRVEPKSCDKTHTCPPCPAPEFEGGPSVFLFPPKPKDTLMISRTPEVTCVVVDVSHEDPEVKFNWYVDGVEVHNAKTKPREEQYNSTYRVVSVLTVLHQDWLNGKEYKCKVSNKALPASIEKTISKAKGQPREPQVCTLPPSREEMTKNQVSLSCAVKGFYPSDIAVEWESNGQPENNYKTTPPVLDSDGSFFLVSKLTVDKSRWQQGNVFSCSVMHEALHNHYTQKSLSLSPGK
light: not shown
notes: It is a knob-into-hole IgG1 heterodimer with a common light chain; also called CD3E × BCMA; CD3 × BCMA
For B2, which “EC50 (read off the curve)” value [3] is on record?
Its value is roughly 8 nM.

B3: anti-BCMA monoclonal antibody H13F1+L9B9 (antibody, human IgG1, kappa, V domains shown)
VH: QVQLVQSGAEVKKPGSSVKVSCKASGYTFTNYWMHWVRQAPGQGLEWMGATYRGHSDTYYNQKFKGRVTITADKSTSTAYMELSSLRSEDTAVYYCTRGAVYAGYDVLDYWGQGTTVTVSS
VL: DIQMTQSPSSLSASVGDRVTITCRASQSISNYLTWYQQKPGKAPKLLIYEASSRPSGVPSRFSGSGSGTDFTLTISSLQPEDFATYYCQQWSRLPVTFGQGTKVEIKR
notes: also called mutant of C4 (IgG1 subtype)
For B3, which “EC50 (read off the curve)” value [3] is on record?
The value was roughly 8 nM.
